Values of other authors, collected in article PMC10560217.
pKd: −log10 of the molar value. Where two headings read alike, the source gives them in different places. Each block holds one substance with its values, some of them ahead of it.

Experiments:
[1] = target: dmIR (Drosophila melanogaster) (UniProt P09208)
[2] = target: dmIR (Drosophila melanogaster) (UniProt P09208); remark: listed apart in the source
[3] = target: dmIR (Drosophila melanogaster) (UniProt P09208); remark: listed apart in the source
[4] = target: hIR ECD (Homo sapiens) (UniProt P06213)

Sequence of dmIR (Drosophila melanogaster) (P09208 44-1310): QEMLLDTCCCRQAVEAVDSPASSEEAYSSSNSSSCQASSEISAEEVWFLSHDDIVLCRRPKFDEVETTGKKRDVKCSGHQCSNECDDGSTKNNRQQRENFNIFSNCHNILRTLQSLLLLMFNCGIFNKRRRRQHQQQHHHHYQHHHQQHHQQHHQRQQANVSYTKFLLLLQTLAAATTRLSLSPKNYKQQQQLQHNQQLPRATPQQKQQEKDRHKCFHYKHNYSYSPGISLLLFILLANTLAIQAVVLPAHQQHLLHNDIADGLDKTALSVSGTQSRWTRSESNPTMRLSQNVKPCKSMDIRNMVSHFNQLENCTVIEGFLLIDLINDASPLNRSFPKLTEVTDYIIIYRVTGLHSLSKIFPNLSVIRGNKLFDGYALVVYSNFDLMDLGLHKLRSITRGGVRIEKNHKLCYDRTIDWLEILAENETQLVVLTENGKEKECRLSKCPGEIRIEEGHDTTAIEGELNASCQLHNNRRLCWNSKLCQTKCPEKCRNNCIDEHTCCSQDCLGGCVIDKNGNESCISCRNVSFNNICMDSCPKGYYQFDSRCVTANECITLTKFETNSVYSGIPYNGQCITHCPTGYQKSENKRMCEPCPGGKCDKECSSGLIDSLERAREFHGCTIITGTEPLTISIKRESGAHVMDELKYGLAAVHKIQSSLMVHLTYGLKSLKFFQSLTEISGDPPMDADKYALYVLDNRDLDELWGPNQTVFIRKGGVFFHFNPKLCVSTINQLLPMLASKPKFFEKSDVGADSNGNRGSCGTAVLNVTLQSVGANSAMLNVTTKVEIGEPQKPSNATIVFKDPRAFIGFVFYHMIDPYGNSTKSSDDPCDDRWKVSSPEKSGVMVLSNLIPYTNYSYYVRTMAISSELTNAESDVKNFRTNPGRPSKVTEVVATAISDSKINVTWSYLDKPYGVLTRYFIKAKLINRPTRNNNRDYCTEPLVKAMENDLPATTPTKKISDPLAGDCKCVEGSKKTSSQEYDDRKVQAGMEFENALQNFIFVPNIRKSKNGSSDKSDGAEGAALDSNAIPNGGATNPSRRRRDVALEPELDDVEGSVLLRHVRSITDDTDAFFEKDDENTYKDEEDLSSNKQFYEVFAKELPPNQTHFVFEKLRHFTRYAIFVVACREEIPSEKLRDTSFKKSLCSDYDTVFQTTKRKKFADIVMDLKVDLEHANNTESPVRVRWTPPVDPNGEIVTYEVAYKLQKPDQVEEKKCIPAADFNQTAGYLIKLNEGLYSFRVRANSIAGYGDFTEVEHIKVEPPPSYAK
Sequence of DILP5 DB (Q7KUD5 23-50): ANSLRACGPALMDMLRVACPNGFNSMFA
Sequence of DILP5 DB (Q7KUD5 84-108): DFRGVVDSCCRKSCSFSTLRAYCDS
Sequence of DILP5 C4 (Q7KUD5 87-108): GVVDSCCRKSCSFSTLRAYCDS
Sequence of insulin (P01308 90-110): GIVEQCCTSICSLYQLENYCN

pKd [1]: 5.23
Substance: hIGF-1 (from UniProt P05019)

pKd [2]: 9.12
Substance: DILP5 C4 (from UniProt Q7KUD5)

pKd [3]: 9.46
Substance: DILP5 DB (from UniProt Q7KUD5)

pKd [4]: 7.52
Substance: insulin (from UniProt P01308)
